Reference: publication PMC10705692
Residue numbers refer to the chain shown, from its start. Names may count otherwise.

Tests used:
[1] = paired-pulse whole-cell patch clamp, tau recovery; details: glycan lost; control: GluK2 WT
[2] = whole-cell patch clamp, 3 ms glutamate, tau deactivation; details: glycan lost
[3] = whole-cell patch clamp, HEK293T, 10 s domoate; details: glycan lost; control: GluK2 WT
[4] = whole-cell patch clamp, HEK293T, tau desensitization; details: glycan lost

B1: GluK2 KAR: T277A (protein)
parent chain: MKIISPVLSNLVFSRSIKVLLCLLWIGYSQGTTHVLRFGGIFEYVESGPMGAEELAFRFAVNTINRNRTLLPNTTLTYDTQKINLYDSFEASKKACDQLSLGVAAIFGPSHSSSANAVQSICNALGVPHIQTRWKHQVSDNKDSFYVSLYPDFSSLSRAILDLVQFFKWKTVTVVYDDSTGLIRLQELIKAPSRYNLRLKIRQLPADTKDAKPLLKEMKRGKEFHVIFDCSHEMAAGILKQALAMGMMTEYYHYIFTTLDLFALDVEPYRYSGVNMTGFRILNTENTQVSSIIEKWSMERLQAPPKPDSGLLDGFMTTDAALMYDAVHVVSVAVQQFPQMTVSSLQCNRHKPWRFGTRFMSLIKEAHWEGLTGRITFNKTNGLRTDFDLDVISLKEEGLEKIGTWDPASGLNMTESQKGKPANITDSLSNRSLIVTTILEEPYVLFKKSDKPLYGNDRFEGYCIDLLRELSTILGFTYEIRLVEDGKYGAQDDVNGQWNGMVRELIDHKADLAVAPLAITYVREKVIDFSKPFMTLGISILYRKPNGTNPGVFSFLNPLSPDIWMYILLAYLGVSCVLFVIARFSPYEWYNPHPCNPDSDVVENNFTLLNSFWFGVGALMQQGSELMPKALSTRIVGGIWWFFTLIIISSYTANLAAFLTVERMESPIDSADDLAKQTKIEYGAVEDGATMTFFKKSKISTYDKMWAFMSSRRQSVLVKSNEEGIQRVLTSDYAFLMESTTIEFVTQRNCNLTQIGGLIDSKGYGVGTPMGSPYRDKITIAILQLQEEGKLHMMKEKWWRGNGCPEEESKEASALGVQNIGGIFIVLAAGLVLSVFVAVGEFLYKSKKNAQLEKRSFCSAMVEELRMSLKCQRRLKHKPQAPVIVKTEEVINMHTFNDRRLPGKETMA
increases: other: rate of recovery from desensitization [1] | other: deactivation rate ([2]; control: GluK2 WT) | other: desensitization rate [3] | other: desensitization rate ([4]; control: GluK2 WT)

B2: GluK2 KAR: T277A/R775A (protein)
parent chain: B1 parent chain with R775A
increases: other: deactivation rate ([2]; control: R775A) | other: desensitization rate ([4]; control: R775A)
